From the supplement of paper PMC9876800

System: peptide library, one residue held at a place counted from the S/T acceptor
Assay: relative phosphorylation of the sub-library (ratio to the mean residue at this position); higher = residue favoured
Summary of the method: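 Relative sub-library phosphorylation is the ratio of each sub-library's signal to the mean residue at that position. The signal came from phosphorimaging of spots on streptavidin membranes, quantified by densitometry, after purified recombinant kinases reacted with biotinylated degenerate peptide sub-libraries in 384-well plates. Reactions held 50 μM peptide and 50 μM ATP spiked with γ-32P-ATP for 90 min under kinase-specific conditions.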

Chain of MAPKAPK5, construct: Full length, human (Q8IW41 whole entry, looked up): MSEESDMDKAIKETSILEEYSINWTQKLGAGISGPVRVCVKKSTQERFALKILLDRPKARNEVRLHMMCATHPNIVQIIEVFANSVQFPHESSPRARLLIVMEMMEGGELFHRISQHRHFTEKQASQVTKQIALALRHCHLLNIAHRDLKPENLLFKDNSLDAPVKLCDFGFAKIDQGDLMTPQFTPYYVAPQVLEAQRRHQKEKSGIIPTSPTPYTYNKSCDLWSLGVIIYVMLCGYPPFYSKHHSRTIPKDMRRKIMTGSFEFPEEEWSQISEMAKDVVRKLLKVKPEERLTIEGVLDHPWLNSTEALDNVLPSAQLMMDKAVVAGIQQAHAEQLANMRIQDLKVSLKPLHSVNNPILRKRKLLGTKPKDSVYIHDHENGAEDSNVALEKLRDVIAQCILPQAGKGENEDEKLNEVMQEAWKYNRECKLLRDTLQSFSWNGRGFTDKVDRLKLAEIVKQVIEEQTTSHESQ
Chain of MYLK4, construct: Full length, human (Q86YV6 whole entry, looked up): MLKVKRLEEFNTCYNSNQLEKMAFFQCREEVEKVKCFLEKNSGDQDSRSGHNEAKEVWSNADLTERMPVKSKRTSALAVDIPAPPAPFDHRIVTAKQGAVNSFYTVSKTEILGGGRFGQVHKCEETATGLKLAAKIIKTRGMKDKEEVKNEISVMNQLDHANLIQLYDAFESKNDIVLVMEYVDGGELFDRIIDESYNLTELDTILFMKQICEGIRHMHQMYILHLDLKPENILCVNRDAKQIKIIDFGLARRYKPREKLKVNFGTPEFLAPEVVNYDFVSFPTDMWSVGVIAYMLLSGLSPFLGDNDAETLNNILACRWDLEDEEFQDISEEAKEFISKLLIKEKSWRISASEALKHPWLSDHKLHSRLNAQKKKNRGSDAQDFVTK
Chain of MAP2K5, construct: Full length, human (Q13163 whole entry, looked up): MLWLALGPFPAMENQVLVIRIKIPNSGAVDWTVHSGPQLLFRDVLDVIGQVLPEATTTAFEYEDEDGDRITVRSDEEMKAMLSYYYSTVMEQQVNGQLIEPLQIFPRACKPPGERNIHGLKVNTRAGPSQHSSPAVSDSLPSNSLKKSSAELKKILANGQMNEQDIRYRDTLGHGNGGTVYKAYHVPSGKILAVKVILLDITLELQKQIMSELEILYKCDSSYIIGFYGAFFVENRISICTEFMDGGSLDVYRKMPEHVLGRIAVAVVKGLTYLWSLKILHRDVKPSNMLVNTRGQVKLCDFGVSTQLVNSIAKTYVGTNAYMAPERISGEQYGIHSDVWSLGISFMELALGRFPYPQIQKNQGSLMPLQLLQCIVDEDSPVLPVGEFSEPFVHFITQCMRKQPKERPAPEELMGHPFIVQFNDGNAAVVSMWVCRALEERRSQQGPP
Chain of MAP3K15, construct: aa631-922, human (Q6ZN16 631-922, looked up): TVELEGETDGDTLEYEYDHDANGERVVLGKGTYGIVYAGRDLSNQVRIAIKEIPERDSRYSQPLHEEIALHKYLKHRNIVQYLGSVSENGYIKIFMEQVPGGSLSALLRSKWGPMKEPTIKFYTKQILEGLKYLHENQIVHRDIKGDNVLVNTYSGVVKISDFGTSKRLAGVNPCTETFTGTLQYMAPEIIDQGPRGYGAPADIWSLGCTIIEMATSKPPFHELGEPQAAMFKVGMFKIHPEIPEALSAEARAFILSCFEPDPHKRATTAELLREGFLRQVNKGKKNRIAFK

MYLK4, construct: Full length, human (from UniProt Q86YV6)
relative phosphorylation
Details	at +1	at +2	at +3	at +4	at -1	at -2	at -3	at -4	at -5
A fixed	0.96	0.643	0.61	0.778	0.871	0.876	0.764	1.09	0.837
D fixed	0.566	0.833	0.854	0.974	0.639	0.272	0.32	0.437	0.41
E fixed	0.776	1.04	0.652	0.871	0.49	0.273	0.339	0.628	0.432
F fixed	1.25	1.2	1.59	1.04	0.915	0.405	0.511	0.909	1.23
G fixed	0.814	0.588	0.715	0.858	0.533	0.468	0.544	1.01	0.735
H fixed	0.885	1.27	0.849	0.917	1.13	1.17	0.737	0.907	0.912
I fixed	1.01	1.03	1.05	1.27	0.817	0.485	0.63	1.02	1.25
K fixed	1.28	1.39	0.718	0.807	1.8	1.76	2.19	1.89	1.65
L fixed	1.03	1.02	1.27	1.33	1.74	0.412	0.455	0.915	1.24
M fixed	1.3	0.948	1.09	0.938	1.19	0.5	0.538	0.973	1.06
N fixed	0.921	0.946	1.01	1.05	1.34	0.588	0.498	0.826	0.694
P fixed	0.386	0.713	0.517	1.18	0.775	0.389	0.538	0.743	0.843
Q fixed	1.27	0.949	0.659	1.04	0.889	0.725	0.631	0.925	0.749
R fixed	1.55	1.41	0.808	0.818	1.49	7.39	6.83	2.06	1.85
V fixed	0.981	1.09	0.834	0.982	0.701	0.411	0.507	1.01	1
W fixed	1.13	0.89	2.75	1.27	0.839	0.466	0.517	0.719	0.852
Y fixed	0.888	1.04	1.04	0.883	0.848	0.416	0.449	0.936	1.26
pThr fixed	1.88	1.98	0.701	1.09	0.794	0.666	0.917	0.92	0.692
pTyr fixed	0.998	1.68	1.14	1.15	1.03	0.469	0.94	0.797	0.752

MAP2K5, construct: Full length, human (from UniProt Q13163)
relative phosphorylation
Details	at +1	at +2	at +3	at +4	at -1	at -2	at -3	at -4	at -5
A fixed	0.719	0.806	0.742	0.876	0.985	1.01	1.02	0.982	0.924
D fixed	0.453	0.477	0.592	0.598	0.918	0.931	0.998	0.992	0.898
E fixed	0.47	0.454	0.583	0.62	0.73	0.732	0.889	0.982	0.828
F fixed	1.12	0.912	1.29	0.97	0.899	1.75	0.962	1.08	1.2
G fixed	0.703	0.748	0.949	0.998	1.19	0.942	1.16	1.08	0.963
H fixed	0.886	2.3	1.1	1.07	1.15	1.01	1.02	1.09	1.17
I fixed	1.52	0.717	0.919	0.898	0.706	0.696	0.744	0.74	0.856
K fixed	0.872	1.29	1.14	1.49	1.14	0.83	1.08	1.11	1.09
L fixed	1.2	0.711	1.01	0.836	1.07	0.841	0.846	0.783	0.884
M fixed	1.62	0.928	1.06	0.956	1.11	0.866	0.943	0.944	0.889
N fixed	0.836	0.935	0.963	0.891	1.08	0.855	0.906	0.947	0.894
P fixed	0.636	0.604	0.714	1.06	0.809	0.901	1.07	0.902	0.894
Q fixed	0.839	0.918	0.854	1.09	0.969	0.841	0.817	0.834	0.828
R fixed	1.1	1.53	1.36	1.43	1.5	1.23	1.54	1.24	1.19
V fixed	1.2	0.736	0.781	0.774	0.711	0.771	0.684	0.791	0.843
W fixed	1.7	1.36	1.64	1.24	0.875	1.37	1.18	1.38	1.34
Y fixed	1.14	1.57	1.3	1.21	1.17	1.43	1.14	1.12	1.32
pThr fixed	0.902	0.728	0.733	0.792	0.844	1.07	1.34	1.17	1.29
pTyr fixed	0.576	0.485	0.723	0.57	0.974	1.3	1.08	0.835	1.08

MAPKAPK5, construct: Full length, human (from UniProt Q8IW41)
relative phosphorylation
Details	at +1	at +2	at +3	at +4	at -1	at -2	at -3	at -4	at -5
A fixed	0.697	1.12	1.09	0.728	0.899	1.63	0.654	0.868	0.78
D fixed	0.317	1.3	0.82	1.17	0.706	0.282	0.157	0.486	0.433
E fixed	0.474	1.29	0.757	1.01	0.557	0.442	0.171	0.864	0.313
F fixed	1.17	0.746	1.48	0.96	0.965	0.679	0.639	1.11	1.79
G fixed	0.396	0.947	0.903	1.05	0.427	1.07	0.5	0.658	0.527
H fixed	1.13	1.11	1.01	1.17	1.22	0.742	1.14	1.03	0.763
I fixed	1.38	0.921	0.694	0.883	1.18	0.522	0.228	0.834	1.24
K fixed	0.641	0.729	0.646	0.917	0.966	0.769	0.754	1.23	0.777
L fixed	1.02	0.704	0.819	0.794	1.33	1.16	0.521	1.19	1.59
M fixed	1.15	1	1.05	0.912	1.8	1.77	0.816	1.27	1.27
N fixed	0.552	1.08	0.687	0.986	1.09	0.903	0.341	0.642	0.633
P fixed	0.338	0.956	1.46	1.25	0.529	0.292	0.322	0.512	0.748
Q fixed	1.13	1.23	0.672	0.898	0.935	2.85	0.696	0.93	0.62
R fixed	0.931	0.972	0.602	0.968	1.38	1.55	7.97	1.32	1.28
V fixed	1.84	1.24	1.1	0.768	1.04	0.608	0.267	0.813	0.894
W fixed	2.06	0.716	1.48	1.41	0.822	0.861	0.935	1.82	1.89
Y fixed	1.78	0.942	1.73	1.14	1.17	0.862	0.885	1.43	1.47
pThr fixed	0.688	0.697	0.784	1.49	0.462	0.387	0.267	0.599	0.61
pTyr fixed	2.04	1.96	1.2	1.41	1.28	1.36	0.297	1.26	0.914

PRKCI, construct: Full length, human (from UniProt P41743)
relative phosphorylation
Details	at +1	at +2	at +3	at +4	at -1	at -2	at -3	at -4	at -5
A fixed	0.617	0.488	0.873	0.871	1.13	0.692	0.835	1.12	1
D fixed	0.136	0.156	0.275	0.43	0.343	0.184	0.208	0.464	0.499
E fixed	0.134	0.152	0.277	0.378	0.317	0.197	0.23	0.464	0.425
F fixed	1.85	0.543	0.961	0.688	0.607	0.995	1.06	0.998	1.39
G fixed	0.617	0.557	0.946	1.07	1.4	0.883	0.846	1.04	1.02
H fixed	0.755	1.42	1.24	1.2	0.896	1.17	1.01	1.1	1.05
I fixed	1.34	0.654	0.855	0.926	0.35	0.447	0.543	0.782	0.792
K fixed	1.93	2.63	2.28	2.33	2.57	1.52	1.86	1.71	1.71
L fixed	1.18	0.538	0.882	0.716	0.617	0.601	0.745	0.761	1.13
M fixed	1.74	0.873	0.722	0.745	1.02	0.878	0.915	0.883	0.814
N fixed	0.58	0.59	0.598	0.765	0.921	0.768	0.579	0.899	0.771
P fixed	0.445	0.401	0.699	1.11	0.731	0.423	0.603	0.75	0.79
Q fixed	0.79	0.655	0.659	0.863	1.12	0.813	0.698	0.859	0.788
R fixed	2.23	5.01	2.67	2.07	2.73	4.2	4.14	1.78	1.76
V fixed	1.04	0.643	0.792	0.774	0.607	0.478	0.655	0.935	0.89
W fixed	0.696	0.658	1.14	1.14	0.637	1.02	1.01	1.53	1.22
Y fixed	0.92	1.04	1.15	0.923	0.993	1.73	1.06	0.926	0.948
pThr fixed	0.598	0.355	0.444	0.621	0.312	0.388	0.638	0.775	0.716
pTyr fixed	0.324	0.334	0.539	0.442	0.309	0.349	0.391	0.388	0.599

MAP3K15, construct: aa631-922, human (from UniProt Q6ZN16)
relative phosphorylation
Details	at +1	at +2	at +3	at +4	at -1	at -2	at -3	at -4	at -5
A fixed	0.514	0.74	1.02	0.926	1.01	1.79	1.14	1.02	0.99
D fixed	0.2	0.473	0.377	0.494	0.459	0.498	0.88	0.771	0.79
E fixed	0.257	0.337	0.401	0.534	0.471	0.513	0.73	0.739	0.743
F fixed	1.94	1.79	0.942	0.898	0.745	0.735	0.771	0.855	1.1
G fixed	0.39	0.733	1.07	1.07	2.13	1.26	1.04	1.29	1.24
H fixed	1.08	1.01	1.04	1.04	0.94	0.852	1.07	0.963	1.17
I fixed	1.94	0.567	1.09	1.13	0.415	0.859	0.687	0.668	0.761
K fixed	0.39	1.48	1.14	1.82	1.43	0.864	1.18	1.06	1.05
L fixed	1.41	0.76	1.01	0.885	0.828	0.983	0.799	0.788	0.759
M fixed	1.18	0.952	1.02	0.926	0.963	1.07	0.837	0.896	0.929
N fixed	0.439	0.782	0.971	0.91	1.28	1.26	1.18	1.19	0.988
P fixed	0.352	0.676	1.08	0.971	1.15	1.63	1.6	1.37	1.2
Q fixed	0.604	0.79	0.917	1.1	1.07	1.13	1.26	1.1	1.08
R fixed	0.481	1.7	1.39	1.2	1.73	0.885	1.21	1.15	1.03
V fixed	1.84	0.617	1.12	0.866	0.524	1.13	0.776	0.888	1.24
W fixed	1.83	1.02	1.19	1.15	0.745	0.693	0.917	1.08	1.02
Y fixed	2.16	2.58	1.24	1.07	1.12	0.848	0.925	1.18	0.915
pThr fixed	0.588	0.497	0.73	0.394	0.639	1.06	1.04	0.928	1.09
pTyr fixed	0.529	0.403	0.951	0.582	0.832	0.888	1.02	0.936	1.2
